B1: LINE1-mini (parent)
chain: GGCAGAGCUCAACACAGCGUGGCAAAGUGGCUGUGGCUAGACUGCC

The data set covers variants of B1. The experiment in a line: self-cleavage, relative activity (ratio to wild type); higher = more cleavage; in vitro, sequencing; the parent is a self-cleaving ribozyme.
As to G17C U28A, the self-cleavage is 1.16. For the variant G17C U28G, the self-cleavage came out at 1.62. G17C U28C: the self-cleavage is 0.36.

As to G17U G29C, the self-cleavage is 0.39.

As for G17U G29A, the self-cleavage was found to be 0.43. In the case of G17U G29U, the self-cleavage turned out to be 0.43. Then G17U G27A, with 0.38; and G17U G27U, with 0.35; and G17U G27C, with 0.22. The figure for G17A G29A is 0.37; for G17A G29C it is 0.68; for G17A G29U it is 0.07. G17U C46G: the self-cleavage came to 0.12. For the variant G17U C46A, the self-cleavage amounted to 0.13. On to G17U C46U, for which the self-cleavage came out at 0.16. Take C18G A24G: the self-cleavage turned out to be 0.44. Then C18G A24U, with 0.76; and C18G A24C, with 0.17; and C18A C45A, with 0.24.

As for C18A C45U, the self-cleavage is 0.58. On to C18A C45G, for which the self-cleavage is 0.14.

Turning to C18A C42G, the self-cleavage turned out to be 0.04. For the variant C18A C42A, the self-cleavage was 0.12. On to C18A C42U, for which the self-cleavage came to 0.13.

G17A C42G: the self-cleavage is 0.12. Take G17A C42A: the self-cleavage came to 0.07. Regarding G17A C42U, the self-cleavage was found to be 0.1.

For the variant G17U G40U, the self-cleavage was 0.06. G17U G40A: the self-cleavage came out at 0.05. As to G17U G40C, the self-cleavage worked out at 0.17. Regarding G17C C23G, the self-cleavage came out at 1.22.

With G17C C23A, the self-cleavage amounted to 1.07.

Turning to G17C C23U, the self-cleavage came to 1.61. Regarding G17A C46A, the self-cleavage came out at 0.14. For G17A C46G, the self-cleavage worked out at 0.12. For the variant G17A C46U, the self-cleavage was 0.15. For the variant C18A G44C, the self-cleavage is 0.22. With C18A G44U, the self-cleavage stood at 0.08. Turning to C18A G44A, the self-cleavage turned out to be 0.2. On to G17A U32A, for which the self-cleavage came out at 0.06. With G17A U32C, the self-cleavage worked out at 0.09. With G17A U32G, the self-cleavage came to 0.06. For the variant C18A G35A, the self-cleavage is 0.05. The figure for C18A G35U is 0.07; for C18A G35C it is 0.05. With G17U U43A, the self-cleavage came out at 0.09. With G17U U43C, the self-cleavage amounted to 0.06. Turning to G17U U43G, the self-cleavage was determined as 0.06. The figure for C18A A25C is 0.36. With C18A A25G, the self-cleavage came to 0.19. The figure for C18A A25U is 1.21.

As for G17C C37U, the self-cleavage is 0.08. G17C C37G: the self-cleavage worked out at 0.04.

Consider G17C C37A, for which the self-cleavage came out at 0.07. On to C18A C46G, for which the self-cleavage was 0.47. As for C18A C46U, the self-cleavage is 0.65.

Consider C18A C46A, for which the self-cleavage was found to be 0.95. Regarding G17A G19U, the self-cleavage stood at 0.25. In the case of G17A G19C, the self-cleavage was determined as 1.09.

Take G17A G19A: the self-cleavage was 0.62.

Regarding G17U G22A, the self-cleavage was found to be 0.26. Turning to G17U G22C, the self-cleavage came out at 0.61. Then G17U G22U, with 0.67. On to G17C U34C, for which the self-cleavage amounted to 0.09. On to G17C U34A, for which the self-cleavage was found to be 0.07. Take G17C U34G: the self-cleavage was determined as 0.1. The figure for C18A G29A is 0.69. As for C18A G29C, the self-cleavage amounted to 0.83. Consider C18A G29U, for which the self-cleavage was found to be 1.07.

With C18A G21C, the self-cleavage amounted to 0.96. As to C18A G21A, the self-cleavage turned out to be 1.86. The figure for C18A G21U is 0.77; for G17U U38G it is 0.08. On to G17U U38C, for which the self-cleavage was 0.04.

Take G17U U38A: the self-cleavage is 0.17.

For the variant G17A U34A, the self-cleavage came to 0.04. As to G17A U34C, the self-cleavage is 0.06. Turning to G17A U34G, the self-cleavage is 0.02. As for G17A C31U, the self-cleavage worked out at 0.35. Consider G17A C31G, for which the self-cleavage was 0.08.

In the case of G17A C31A, the self-cleavage was 0.13.

With C18A G22U, the self-cleavage amounted to 1.74. Consider C18A G22C, for which the self-cleavage was determined as 0.92. C18A G22A: the self-cleavage amounted to 1.07. Take C18A U20G: the self-cleavage stood at 0.61. Turning to C18A U20C, the self-cleavage is 0.31. The figure for C18A U20A is 0.29. The figure for C18G A26C is 0.86; for G17C U43C it is 0.08; for G17C U43A it is 0.13.

Regarding G17U A25G, the self-cleavage turned out to be 0.07. Turning to G17U A25C, the self-cleavage was determined as 0.12. Take G17U A25U: the self-cleavage turned out to be 0.12. Turning to G17C G44A, the self-cleavage turned out to be 0.11. Turning to G17C G44C, the self-cleavage was 0.05.

Consider G17C G44U, for which the self-cleavage turned out to be 0.07.

For the variant C18A G36U, the self-cleavage was 0.07. For C18A G36A, the self-cleavage turned out to be 0.13.

On to C18A G36C, for which the self-cleavage is 0.03. The figure for C18A U34A is 0.03.

On to C18A U34G, for which the self-cleavage came to 0.04.

With C18A U34C, the self-cleavage worked out at 0.06. On to C18A A24G, for which the self-cleavage was determined as 0.56. In the case of C18A A24U, the self-cleavage stood at 0.67. Consider C18A A24C, for which the self-cleavage was 0.18.

Consider G17C C42A, for which the self-cleavage was 0.05.

For the variant G17C C42U, the self-cleavage was found to be 0.1. As to G17C C42G, the self-cleavage stood at 0.03.

In the case of G17C G33C, the self-cleavage is 0.03.

As to G17C G33U, the self-cleavage worked out at 0.06.

For the variant G17C G33A, the self-cleavage came to 0.06. In the case of G17U C18G, the self-cleavage turned out to be 0.12. With G17U C18A, the self-cleavage came to 0.18.

Take G17U C18U: the self-cleavage was determined as 0.12. Then G17U, with 0.23; and G17C, with 0.79. Regarding C18A G19U, the self-cleavage is 0.31. On to C18A G19C, for which the self-cleavage is 1.27. For the variant C18A G19A, the self-cleavage was 1.05.

As for G17U U34A, the self-cleavage came out at 0.05. The figure for G17U U34G is 0.04; for G17U U34C it is 0.05; for C18A C31U it is 0.04. As to C18A C31G, the self-cleavage is 0.04. In the case of C18A C31A, the self-cleavage amounted to 0.16. C18A U28C: the self-cleavage came out at 0.49. On to C18A U28G, for which the self-cleavage worked out at 0.5. For C18A U28A, the self-cleavage was 0.7. Then G17C U32G, with 0.07. The figure for G17C U32C is 0.14; for G17C U32A it is 0.07. As for G17C U20C, the self-cleavage was 0.66. G17C U20A: the self-cleavage is 0.55.

For the variant G17C U20G, the self-cleavage was determined as 0.14.

As to C18A A26C, the self-cleavage worked out at 2.92.

C18A A26U: the self-cleavage is 0.69. As to C18A A26G, the self-cleavage is 0.57. Regarding G17U G44A, the self-cleavage was determined as 0.07. In the case of G17U G44U, the self-cleavage worked out at 0.06.

In the case of G17U G44C, the self-cleavage came to 0.05. In the case of G17U G35C, the self-cleavage was determined as 0.18. The figure for G17U G35A is 0.07; for G17U G35U it is 0.07; for G17A G30A it is 0.57. The figure for G17A G30C is 0.83. Turning to G17A G30U, the self-cleavage amounted to 0.2. Then G17A G21C, with 0.74; and G17A G21A, with 0.22. Then G17A G21U, with 0.83; and G17A U20A, with 0.1; and G17A U20G, with 0.07.

Take G17A U20C: the self-cleavage stood at 0.12. The figure for C18A U32G is 0.04. Then C18A U32C, with 0.16. In the case of C18A U32A, the self-cleavage was determined as 0.05. As for G17A G40U, the self-cleavage is 0.07. Consider G17A G40C, for which the self-cleavage is 0.09. Regarding G17A G40A, the self-cleavage was determined as 0.06.

In the case of G17C G40C, the self-cleavage was 0.05. For G17C G40U, the self-cleavage amounted to 0.07. G17C G40A: the self-cleavage amounted to 0.04. For the variant C18G, the self-cleavage worked out at 0.52. In the case of C18A, the self-cleavage came to 0.85. As for G17C U38G, the self-cleavage is 0.03. As for G17C U38A, the self-cleavage was found to be 0.14. G17C U38C: the self-cleavage was 0.15. On to G17U G30C, for which the self-cleavage amounted to 0.59.

The values are drawn from the RNAGym collection of RNA variant scans (doi:10.7554/elife.90254).
